Consider five substances from article doi:10.1101/2023.08.29.555277.

For assay [1], the target named is F-actin (polymerised purified rabbit skeletal G-actin) (rabbit) (UniProt P68135). Nature of the assay: co-sedimentation.
Assay [2] deals with microtubules polymerised from porcine Tubulin (porcine) (UniProt P02550). Description: co-sedimentation.
Chain of UniProt P02550 (P02550 whole entry, looked up): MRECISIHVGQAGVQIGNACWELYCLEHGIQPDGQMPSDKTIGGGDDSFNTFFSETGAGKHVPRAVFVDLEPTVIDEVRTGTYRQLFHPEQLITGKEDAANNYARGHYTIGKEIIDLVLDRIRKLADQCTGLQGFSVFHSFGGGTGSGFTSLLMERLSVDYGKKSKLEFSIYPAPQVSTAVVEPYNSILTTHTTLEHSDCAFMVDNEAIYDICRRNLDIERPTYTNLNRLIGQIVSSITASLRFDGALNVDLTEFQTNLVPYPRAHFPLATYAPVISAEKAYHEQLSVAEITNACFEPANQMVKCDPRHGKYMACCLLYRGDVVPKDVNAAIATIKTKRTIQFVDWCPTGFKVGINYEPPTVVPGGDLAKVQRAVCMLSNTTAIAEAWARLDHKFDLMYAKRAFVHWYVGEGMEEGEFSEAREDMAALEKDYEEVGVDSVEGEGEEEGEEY

As for “HTT Bridge domain tagged with GST (GST-B: 1887-2098 a.a.) (domain or fragment)”, the Pellet/Supernatant with F-actin in assay [1] is 1.6.
Consider “endogenous HTT of mouse developing cortex, P42859 1-3119”, for which the amount of HTT in the pellet with F-actin in assay [1] (remark: other sources report otherwise) came to 1.07.
The substance “HTT fragment containing the Bridge to C_HEAT domains (B-C_HEAT; 1887 to 3144 a.a.) (domain or fragment)” returned a Pellet/Supernatant with F-actin in assay [1] of 1.57.
The Kd is the equilibrium constant for the complex coming apart. A low value points to tighter binding. In assay [1], “purified human full-length (FL) wild-type HTT (23 glutamines) (from UniProt P42858 1-3142) (natural protein)” showed a Kd of 357 nM and a Pellet/Supernatant with F-actin of 1.05.
Take “endogenous HTT of mouse developing cortex (from UniProt P42859 1-3119) (natural protein)”: the amount of HTT in the pellet with microtubules in assay [2] was determined as 1.18.
